Test results as given in patent WO2022025129A1 (dated 2022).

B1: 5A4 antibody (recombinant human anti-HBs monoclonal antibody) (antibody, V domains shown)
VH: QVQLQESGPGLVKPSDTLSLTCTVSGGSISGHYWSWIRRLPGGGLEWIGYIHYSGITNYNPSLKSRVTMSVDMSKNQFSLRLRSVTATDTAVYYCARGDATYGYWGQGAPVTVSS
VL: AAAMTQSPFTLPVTPGEPASISCRSSQSLLHRNGYNYVNWYLRKPGQSPQLLISLGSDRASGVPDRFRGSGAGTDFTLKISRVEAEDVGVYYCMQALRTPWTFGQGTKVEIKR
notes: also called 5A4 clone
B2: 3B6 antibody (recombinant human anti-HBs monoclonal antibody) (antibody, V domains shown)
VH: EVQLVESGGGVVQPGKSLRVSCAASGFSFSNYGMHWVRQAPGKGLEWVSVIWRDGSHQYYADSVKGRFTVSRDNARDTLFLQMDGLRAEDTAVYYCAREDPAIVLPVLDHWGRGTLVTVSS
VL: AAAMTQSPVSLSASVGDRVTITCRASQRINSYLNWYQQKPGKAPKLLIYGASNLPSGVPSRFSGSGSGTYFTLTISSLQPEDLATYYCQQGYSTPLLSFGPGTKVEIKR
notes: also called 3B6 clone
B3: M2-11 antibody (recombinant human anti-HBs monoclonal antibody) (antibody, V domains shown)
VH: QVQLVESGGGLVKPGESLRLSCAASGFMFSGHSMVWVRQAPGKGLEWVSFIGSTGEFISYADSVRGRFTISRDNAKNSLYLQMNSLRADDTAVYYCAREQGTRGRYYYYGLDVWGQGTTVTVSS
VL: AAAMTQTPPSLSLSPGESATLSCRASQSVSTYLAWYQQKPGQAPRLLIYDAFNRATGIPARFSGSGSGTDFTLTISGLEPEDFAVYYCQQRGHWPLTFGGGTKVEIKR
notes: also called M2-11 clone

Assays:
[1] = biological target: HBs antigen of genotype C HBV (infectious virus) (Hepatitis B virus (HBV) genotype C); assay: cell-based or functional assay
[2] = biological target: T1, human insulin (Fujifilm Wako Pure Chemical) (human, UniProt P01308 25-54; P01308 90-110); assay: ELISA, human insulin coated on the plate, anti-human IgG-HRP
T1 construct: also called human-derived component
T1 sequence (P01308 25-54 limits assumed, chain 1 of 2): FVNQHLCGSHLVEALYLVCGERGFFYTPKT
T1 sequence (P01308 90-110 limits assumed, chain 2 of 2): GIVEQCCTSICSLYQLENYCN

| Binder | neutralization activity against commercially available HBIG (reduction of HBe antigen, PXB cells) [1] | binding result [2] |
| --- | --- | --- |
| B1 | ≥ 10 fold against commercially available HBIG | no binding (tested: 特異抗原であるHBsへの結合が飽和する濃度の10倍以上の抗体濃度) |
| B2 | ≥ 10 fold against commercially available HBIG | no binding (tested: 特異抗原であるHBsへの結合が飽和する濃度の10倍以上の抗体濃度) |
| B3 | ≥ 10 fold against commercially available HBIG | no binding (tested: 特異抗原であるHBsへの結合が飽和する濃度の10倍以上の抗体濃度) |
